Experiments:
[1] = biological target: HLA-A*02:01; experiment: IEDB peptide-MHC binding, purified MHC/direct/fluorescence; filed as Kd, often an IC50 or EC50 that approximates it; ≥ and ≤ were set here for values at or beyond the usual limits of such assays
[2] = biological target: HLA-A*69:01; experiment: as above
[3] = biological target: HLA-A*02:01; experiment: IEDB peptide-MHC binding, purified MHC/competitive/fluorescence; ≥ and ≤ were set here for values at or beyond the usual limits of such assays
[4] = biological target: HLA-B*15:01; experiment: IEDB peptide-MHC binding, purified MHC/direct/fluorescence; filed as Kd, often an IC50 or EC50 that approximates it; ≥ and ≤ were set here for values at or beyond the usual limits of such assays
[5] = biological target: HLA-A*26:01; experiment: IEDB peptide-MHC binding, purified MHC/competitive/radioactivity; filed as Kd, often an IC50 or EC50 that approximates it; ≥ and ≤ were set here for values at or beyond the usual limits of such assays
[6] = biological target: HLA-A*02:03; experiment: as above
[7] = biological target: HLA-A*02:02; experiment: as above
[8] = biological target: HLA-A*02:06; experiment: as above
[9] = biological target: HLA-A*03:01; experiment: IEDB peptide-MHC binding, purified MHC/direct/fluorescence; filed as Kd, often an IC50 or EC50 that approximates it; ≥ and ≤ were set here for values at or beyond the usual limits of such assays
[10] = biological target: HLA-B*07:02; experiment: as above
[11] = source organism: Oligoflexia bacterium
[12] = source organism: Mycobacterium tuberculosis str. Haarlem
[13] = source organism: Sudan ebolavirus
[14] = source organism: Vaccinia virus WR
[15] = source organism: Zaire ebolavirus
[16] = source organism: Giardia lamblia ATCC 50803
[17] = source organism: SARS coronavirus Tor2
[18] = source organism: Mycobacterium avium 104
[19] = source organism: Mycobacterium tuberculosis
[20] = source organism: Cryptosporidium hominis
[21] = source organism: Orthohantavirus hantanense
[22] = source organism: Mammarenavirus lassaense

EYSGGLHGV
Kd [1, 11]: 18000 nM
Kd [2, 11]: 460 nM

LRFANPLSN
IC50 ([3]; source organism: Vaccinia virus): ≥ 164000 nM

ALTAGAGAY
Kd [4, 12]: 450 nM

ELIDGISLG
Kd ([5]; source organism: Dengue virus 4 Dominica/814669/1981): 472 nM

LVPKNSPGM
IC50 [3, 13]: 17700 nM

ILLILSCIFA
Kd [6, 14]: 307 nM
Kd [7, 14]: 448 nM
Kd [8, 14]: 492 nM

RMMASSMSQ
Kd ([9]; source organism: Bacillus cereus): ≥ 20000 nM

QVNNLEEIC
IC50 [3, 15]: ≥ 112000 nM

LMQDCAIKA
Kd [1, 16]: 82.1 nM
Kd [2, 16]: ≥ 20000 nM

ETLGEKWKSR
Kd ([5]; source organism: Dengue virus 2 Jamaica/1409/1983): 14300 nM

IMFMLIFNV
Kd [6, 14]: 10.2 nM
Kd [7, 14]: 0.146 nM
Kd [8, 14]: 13.1 nM

GTSAAAYFV
Kd [6, 17]: 202 nM
Kd [7, 17]: 35.2 nM
Kd [8, 17]: 90.5 nM

DVDMDFDLNI
Kd [6, 14]: 1520 nM
Kd [7, 14]: 2030 nM
Kd [8, 14]: 5820 nM

YIEDELRRA
Kd [6, 14]: 259 nM
Kd [7, 14]: 1760 nM
Kd [8, 14]: 1230 nM

RMGAAVTPY
Kd [4, 12]: 98.8 nM
Kd [9, 12]: 254 nM

ILFILFFAYV
Kd [6, 14]: 366 nM
Kd [7, 14]: 132 nM
Kd [8, 14]: 1210 nM

VYLPGRGGV
Kd [1, 18]: ≥ 20000 nM
Kd [2, 18]: ≥ 20000 nM

SINITPDDGL
Kd [6, 14]: 1230 nM
Kd [7, 14]: 413 nM
Kd [8, 14]: 0.343 nM

SISSVLTIL
Kd [6, 14]: 3.98 nM
Kd [7, 14]: 1.25 nM
Kd [8, 14]: 110 nM

ALALEQYGI
Kd [6, 14]: 40 nM
Kd [7, 14]: 0.695 nM
Kd [8, 14]: 548 nM

YLGHSAGFTA
Kd [6, 14]: 86.1 nM
Kd [7, 14]: 16.4 nM
Kd [8, 14]: 144 nM

EMFGGTPAV
Kd [1, 19]: 2.1 nM

ELITEQMAPH
Kd ([5]; source organism: Dengue virus 4 Philippines/H241/1956): 6060 nM

KINPLLDEPL
Kd [6, 14]: 304 nM
Kd [7, 14]: 53.4 nM
Kd [8, 14]: 18.6 nM

MQVFFGYFA
Kd [6, 17]: 193 nM
Kd [7, 17]: 9.96 nM
Kd [8, 17]: 1.04 nM

RNRDQSNAL
Kd [10, 19]: 112 nM

FQWSDDPFI
Kd [1, 20]: 7.3 nM
Kd [2, 20]: ≥ 20000 nM

YAVLSEYETM
Kd [6, 14]: 9630 nM
Kd [7, 14]: 157 nM
Kd [8, 14]: 1210 nM

WVIILFQKA
IC50 [3, 13]: ≥ 341000 nM

SSLPPLESD
IC50 [3, 15]: ≥ 170000 nM

YIWKSYVHI
Kd [6, 17]: 12.9 nM
Kd [7, 17]: 86.4 nM
Kd [8, 17]: 8.89 nM

TVIALFLAH
Kd ([5]; source organism: Dengue virus 1 Brazil/97-11/1997): 12200 nM

LILAKPKET
IC50 [3, 13]: 10800 nM

VVKDKIKLPT
Kd [6, 14]: 8600 nM
Kd [7, 14]: ≥ 37300 nM
Kd [8, 14]: ≥ 29200 nM

MMNITRLEVI
Kd [6, 14]: 26.1 nM
Kd [7, 14]: 85.4 nM
Kd [8, 14]: 134 nM

LLWFNYLFG
IC50 ([3]; source organism: Variola virus): ≥ 327000 nM

LLPGVAHSI
Kd ([1]; source organism: Amur virus): 4.2 nM
Kd ([2]; source organism: Amur virus): ≥ 20000 nM

DPNPQEVVL
Kd ([10]; source organism: Human immunodeficiency virus 1): ≥ 30700 nM

STSNVITDQT
Kd [6, 14]: ≥ 70400 nM
Kd [7, 14]: ≥ 53600 nM
Kd [8, 14]: 10800 nM

GLQADAPHL
Kd [1, 21]: 104 nM
Kd [2, 21]: ≥ 20000 nM

ETQSGALEVL
Kd [6, 14]: 14500 nM
Kd [7, 14]: 5310 nM
Kd [8, 14]: 1580 nM

LLKETIQKDI
Kd [6, 14]: 782 nM
Kd [7, 14]: 3060 nM
Kd [8, 14]: ≥ 23400 nM

GLVRALTAF
Kd ([4]; source organism: Mycobacterium tuberculosis variant bovis BCG str. Pasteur 1173P2): 255 nM

LLMEGLKLLS
Kd [6, 22]: 39.5 nM
Kd [7, 22]: 78.3 nM
Kd [8, 22]: 1750 nM

YVEHDPRLVA
Kd [6, 14]: 16200 nM
Kd [7, 14]: 18600 nM
Kd [8, 14]: 11900 nM

PMVHSTFLI
Kd ([1]; source organism: Homo sapiens): 2430 nM

LALWDSNFFT
Kd [6, 14]: 19900 nM
Kd [7, 14]: 11000 nM
Kd [8, 14]: 1250 nM

KLSSLGLNAV
IC50 ([3]; source organism: Hepatitis C virus subtype 1b): 25 nM

ETLGEKWKNR
Kd ([5]; source organism: Dengue virus 2 Peru/IQT2913/1996): 14600 nM

NLEHGLFPQ
IC50 [3, 15]: ≥ 304000 nM

QLAKAIITP
IC50 ([3]; source organism: Vaccinia virus Copenhagen): ≥ 96300 nM

AAAATCALV
Kd [6, 14]: 9.05 nM
Kd [7, 14]: 14.6 nM
Kd [8, 14]: 12.5 nM

AVTLNRIKI
Kd [6, 14]: 3340 nM
Kd [7, 14]: 10800 nM
Kd [8, 14]: 7610 nM

PIIYSKAGNI
Kd [6, 14]: 139 nM
Kd [7, 14]: 654 nM
Kd [8, 14]: 728 nM

TISGNIYSA
Kd [6, 14]: 18.9 nM
Kd [7, 14]: 84.5 nM
Kd [8, 14]: 179 nM

YTEAAAATCA
Kd [6, 14]: 16100 nM
Kd [7, 14]: ≥ 36500 nM
Kd [8, 14]: 7150 nM

— the Immune Epitope Database (IEDB)
